Laboratory results taken from patent US20250154277A1 (CONCEPT TO MEDICINE BIOTECH, published 2025).

T1: human 5T4-His protein (human, UniProt Q13641 32-355)
T1 construct: also called recombinant 5T4 protein (human 5T4-his tag); human 5T4 protein; not shown: His tag
T1 sequence (looked up): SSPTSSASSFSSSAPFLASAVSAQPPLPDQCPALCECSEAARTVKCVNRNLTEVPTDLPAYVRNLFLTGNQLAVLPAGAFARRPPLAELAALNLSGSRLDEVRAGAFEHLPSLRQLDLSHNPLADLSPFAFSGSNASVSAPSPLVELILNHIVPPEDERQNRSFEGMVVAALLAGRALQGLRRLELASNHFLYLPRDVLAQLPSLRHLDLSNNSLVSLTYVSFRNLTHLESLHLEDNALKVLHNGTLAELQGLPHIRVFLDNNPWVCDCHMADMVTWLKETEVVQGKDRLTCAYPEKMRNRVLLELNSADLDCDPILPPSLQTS


How the values were obtained:
human 5T4-His protein [1] = target: T1, human 5T4-His protein; test: ELISA, coated 5T4-His
Protocol: To evaluate the binding activity of clones, the 286B4 chimeric antibody along with 286B4 humanized mAbs were subjected to ELISA test.
Briefly, microtiter plates were coated with human 5T4-His protein at 1 μg/ml in PBS, 100 μl/well at 4° C. overnight, then blocked with 150 μl/well of 1% BSA. 4-fold dilutions of tested antibodies starting from 20 nM were added to each well and incubated for 1 hour at 37° C. The plates were washed with PBS/Tween and then incubated with Goat Anti-Human IgG-HRP for 30 mins at 37° C. After washing, the plates were developed with TMB substrate and analyzed by spectrophotometer at OD 450 nm. As shown in FIG. 16 and Table 15, most of the humanized clones bound to human 5T4 with high potency.

human 5T4-His protein [2] = target: T1, human 5T4-His protein; test: SPR Biacore, Protein A capture
Protocol: The binding of the 286B4 humanized antibodies to recombinant 5T4 protein (human 5T4-his tag) was tested with Biacore using a capture method. The mAbs were captured using Protein A chip. A serial dilution of human 5T4-his tag protein was injected over captured antibody for 3 mins at a flow rate of 30 μl/min. The antigen was allowed to dissociate for 280-800 s. All the experiments were carried out on a Biacore T200. Data analysis was carried out using the Biacore T200 evaluation software.

Row | EC50 (human 5T4-His protein [1]) | Kd (human 5T4-His protein [2]) | koff (human 5T4-His protein [2]) | kon (human 5T4-His protein [2]) | Binder
1 | 0.42 nM |  |  |  | Hu286B4-20 (antibody, V domains shown, humanized) VH: EVQLQESGPGLVKPSDTLSLTCAVSGYSITNNYYWNWIRQPPGKGLEWMGYITYDGSNNYNPSLKNRITVSRDTSKNQFSLKLSSVTAVDTAVYYCTRGGGQLRFDYWGQGTTVTVSS VL: SIVMTQSPSSLSASVGDRVTITCKASQSVSNEVTWYQQKPGKSPKMLIYYASNRYTGVPDRFSGSGYGTDFTFTISSLQPEDIATYFCQQDYSSPWTFGGGTKVEIK
2 | 0.71 nM |  |  |  | Hu286B4-17 (antibody, V domains shown, humanized) VH: EVQLQESGPGLVKPSDTLSLTCAVSGYSITNNYYWNWIRQPPGKGLEWMGYITYDGSNNYNPSLKNRITVSRDTSKNQFSLKLSSVTAVDTAVYYCTRGGGQLRFDYWGQGTTVTVSS VL: DIQMTQSPSSLSASVGDRVTITCKASQSVSNEVTWYQQKPGKAPKMLIYYASNRYTGVPDRFSGSGSGTDFTFTISSLQPEDIATYYCQQDYSSPWTFGGGTKVEIK
3 | 0.27 nM |  |  |  | Hu286B4-19 (antibody, V domains shown, humanized) VH: EVQLQESGPGLVKPSDTLSLTCAVSGYSITNNYYWNWIRQPPGKGLEWMGYITYDGSNNYNPSLKNRITVSRDTSKNQFSLKLSSVTAVDTAVYYCTRGGGQLRFDYWGQGTTVTVSS VL: DIQMTQSPSSLSASVGDRVTITCKASQSVSNEVTWYQQKPGKSPKMLIYYASNRYTGVPDRFSGSGYGTDFTFTISSLQPEDIATYFCQQDYSSPWTFGGGTKVEIK

The next lines start with the binder.

Row | Binder | EC50 (human 5T4-His protein [1]) | Kd (human 5T4-His protein [2]) | koff (human 5T4-His protein [2]) | kon (human 5T4-His protein [2])
4 | Hu286B4-8 (antibody, V domains shown, humanized) VH: EVQLQESGPGLVKPSDTLSLTCAVSGYSISNNYYWNWIRQPPGKGLEWIGYITYDGSNNYNPSLKNRITMSRDTSKNQFSLKLSSVTAVDTAVYYCARGGGQLRFDYWGQGTTVTVSS VL: DIQMTQSPSSLSASVGDRVTITCKASQSVSNEVTWYQQKPGKAPKMLIYYASNRYTGVPDRFSGSGYGTDFTFTISSLQPEDIATYYCQQDYSSPWTFGGGTKVEIK | 0.68 nM | 1.08 nM | 0.000103 s⁻¹ | 94600 M⁻¹ s⁻¹
5 | Hu286B4-16 (antibody, V domains shown, humanized) VH: EVQLQESGPGLVKPSDTLSLTCAVSGYSITNNYYWNWIRQPPGKGLEWMGYITYDGSNNYNPSLKNRITVSRDTSKNQFSLKLSSVTAVDTAVYYCTRGGGQLRFDYWGQGTTVTVSS VL: DIQMTQSPSSLSASVGDRVTITCKASQSVSNEVTWYQQKPGKAPKLLIYYASNRYTGVPDRFSGSGSGTDFTFTISSLQPEDIATYYCQQDYSSPWTFGGGTKVEIK | 4.03 nM |  |  | 
6 | Hu286B4-3 (antibody, V domains shown, humanized) VH: EVQLQESGPGLVKPSDTLSLTCAVSGYSISNNYYWNWIRQPPGKGLEWIGYITYDGSNNYNPSLKNRVTMSRDTSKNQFSLKLSSVTAVDTAVYYCARGGGQLRFDYWGQGTTVTVSS VL: DIQMTQSPSSLSASVGDRVTITCKASQSVSNEVTWYQQKPGKAPKMLIYYASNRYTGVPDRFSGSGYGTDFTFTISSLQPEDIATYYCQQDYSSPWTFGGGTKVEIK | 0.51 nM | 1.14 nM | 0.000107 s⁻¹ | 93400 M⁻¹ s⁻¹
7 | Hu286B4-5 (antibody, V domains shown, humanized) VH: EVQLQESGPGLVKPSDTLSLTCAVSGYSISNNYYWNWIRQPPGKGLEWIGYITYDGSNNYNPSLKNRVTMSRDTSKNQFSLKLSSVTAVDTAVYYCARGGGQLRFDYWGQGTTVTVSS VL: SIVMTQSPSSLSASVGDRVTITCKASQSVSNEVTWYQQKPGKSPKMLIYYASNRYTGVPDRFSGSGYGTDFTFTISSLQPEDIATYFCQQDYSSPWTFGGGTKVEIK | 0.28 nM | 1.2 nM | 0.000128 s⁻¹ | 106000 M⁻¹ s⁻¹
8 | Hu286B4-14 (antibody, V domains shown, humanized) VH: EVQLQESGPGLVKPSDTLSLTCAVSGYSISNNYYWNWIRQPPGKGLEWMGYITYDGSNNYNPSLKNRITVSRDTSKNQFSLKLSSVTAVDTAVYYCARGGGQLRFDYWGQGTTVTVSS VL: DIQMTQSPSSLSASVGDRVTITCKASQSVSNEVTWYQQKPGKSPKMLIYYASNRYTGVPDRFSGSGYGTDFTFTISSLQPEDIATYFCQQDYSSPWTFGGGTKVEIK | 0.3 nM |  |  | 
